The source of these data is IntAct's records for PubMed 11779178.

The chains are these.
B1: Merlin (Homo sapiens), P35240-3 (parent)
chain: MAGAIASRMSFSSLKRKQPKTFTVRIVTMDAEMEFNCEMKWKGKDLFDLVCRTLGLRETWFFGLQYTIKDTVAWLKMDKKVLDHDVSKEEPVTFHFLAKFYPENAEEELVQEITQHLFFLQVKKQILDEKIYCPPEASVLLASYAVQAKYGDYDPSVHKRGFLAQEELLPKRVINLYQMTPEMWEERITAWYAEHRGRARDEAEMEYLKIAQDLEMYGVNYFAIRNKKGTELLLGVDALGLHIYDPENRLTPKISFPWNEIRNISYSDKEFTIKPLDKKIDVFKFNSSKLRVNKLILQLCIGNHDLFMRRRKADSLEVQQMKAQAREEKARKQMERQRLAREKQMREEAERTRDELERRLLQMKEEATMANEALMRSEETADLLAEKAQITEEEAKLLAQKAAEAEQEMQRIKATAIRTEEEKRLMEQKVLEAEVLALKMAEESERRAKEADQLKQDLQEAREAERRAKQKLLEIATKPTYPPMNPIPAPLPPDIPSFNLIGDSLSFDFKDTDMKRLSMEIEKEKVEYMEKSKHLQEQLNELKTEIEALKLKERETALDILHNENSDRGGSSKHNTIKKPQAQGRRPICI

Variants of B1 are the subject of experiment [1]. As to conditions: with eif3c_human EIF3C.
In the experiment “HGS, O14964-2” the parent is B1. The following applies: with HGS.
Variants of B1 are the subject of the experiment “HGS, O14964-1”. The following applies: with HGS.
The experiment “NF2, P35240-1” covers variants of B1. The following applies: with NF2, P35240-1.
In experiment [2] the parent is B1. The following applies: with sptb2_human SPTBN1, Q01082.
sptb2_human SPTBN1, Q01082, sequence (Q01082 whole entry): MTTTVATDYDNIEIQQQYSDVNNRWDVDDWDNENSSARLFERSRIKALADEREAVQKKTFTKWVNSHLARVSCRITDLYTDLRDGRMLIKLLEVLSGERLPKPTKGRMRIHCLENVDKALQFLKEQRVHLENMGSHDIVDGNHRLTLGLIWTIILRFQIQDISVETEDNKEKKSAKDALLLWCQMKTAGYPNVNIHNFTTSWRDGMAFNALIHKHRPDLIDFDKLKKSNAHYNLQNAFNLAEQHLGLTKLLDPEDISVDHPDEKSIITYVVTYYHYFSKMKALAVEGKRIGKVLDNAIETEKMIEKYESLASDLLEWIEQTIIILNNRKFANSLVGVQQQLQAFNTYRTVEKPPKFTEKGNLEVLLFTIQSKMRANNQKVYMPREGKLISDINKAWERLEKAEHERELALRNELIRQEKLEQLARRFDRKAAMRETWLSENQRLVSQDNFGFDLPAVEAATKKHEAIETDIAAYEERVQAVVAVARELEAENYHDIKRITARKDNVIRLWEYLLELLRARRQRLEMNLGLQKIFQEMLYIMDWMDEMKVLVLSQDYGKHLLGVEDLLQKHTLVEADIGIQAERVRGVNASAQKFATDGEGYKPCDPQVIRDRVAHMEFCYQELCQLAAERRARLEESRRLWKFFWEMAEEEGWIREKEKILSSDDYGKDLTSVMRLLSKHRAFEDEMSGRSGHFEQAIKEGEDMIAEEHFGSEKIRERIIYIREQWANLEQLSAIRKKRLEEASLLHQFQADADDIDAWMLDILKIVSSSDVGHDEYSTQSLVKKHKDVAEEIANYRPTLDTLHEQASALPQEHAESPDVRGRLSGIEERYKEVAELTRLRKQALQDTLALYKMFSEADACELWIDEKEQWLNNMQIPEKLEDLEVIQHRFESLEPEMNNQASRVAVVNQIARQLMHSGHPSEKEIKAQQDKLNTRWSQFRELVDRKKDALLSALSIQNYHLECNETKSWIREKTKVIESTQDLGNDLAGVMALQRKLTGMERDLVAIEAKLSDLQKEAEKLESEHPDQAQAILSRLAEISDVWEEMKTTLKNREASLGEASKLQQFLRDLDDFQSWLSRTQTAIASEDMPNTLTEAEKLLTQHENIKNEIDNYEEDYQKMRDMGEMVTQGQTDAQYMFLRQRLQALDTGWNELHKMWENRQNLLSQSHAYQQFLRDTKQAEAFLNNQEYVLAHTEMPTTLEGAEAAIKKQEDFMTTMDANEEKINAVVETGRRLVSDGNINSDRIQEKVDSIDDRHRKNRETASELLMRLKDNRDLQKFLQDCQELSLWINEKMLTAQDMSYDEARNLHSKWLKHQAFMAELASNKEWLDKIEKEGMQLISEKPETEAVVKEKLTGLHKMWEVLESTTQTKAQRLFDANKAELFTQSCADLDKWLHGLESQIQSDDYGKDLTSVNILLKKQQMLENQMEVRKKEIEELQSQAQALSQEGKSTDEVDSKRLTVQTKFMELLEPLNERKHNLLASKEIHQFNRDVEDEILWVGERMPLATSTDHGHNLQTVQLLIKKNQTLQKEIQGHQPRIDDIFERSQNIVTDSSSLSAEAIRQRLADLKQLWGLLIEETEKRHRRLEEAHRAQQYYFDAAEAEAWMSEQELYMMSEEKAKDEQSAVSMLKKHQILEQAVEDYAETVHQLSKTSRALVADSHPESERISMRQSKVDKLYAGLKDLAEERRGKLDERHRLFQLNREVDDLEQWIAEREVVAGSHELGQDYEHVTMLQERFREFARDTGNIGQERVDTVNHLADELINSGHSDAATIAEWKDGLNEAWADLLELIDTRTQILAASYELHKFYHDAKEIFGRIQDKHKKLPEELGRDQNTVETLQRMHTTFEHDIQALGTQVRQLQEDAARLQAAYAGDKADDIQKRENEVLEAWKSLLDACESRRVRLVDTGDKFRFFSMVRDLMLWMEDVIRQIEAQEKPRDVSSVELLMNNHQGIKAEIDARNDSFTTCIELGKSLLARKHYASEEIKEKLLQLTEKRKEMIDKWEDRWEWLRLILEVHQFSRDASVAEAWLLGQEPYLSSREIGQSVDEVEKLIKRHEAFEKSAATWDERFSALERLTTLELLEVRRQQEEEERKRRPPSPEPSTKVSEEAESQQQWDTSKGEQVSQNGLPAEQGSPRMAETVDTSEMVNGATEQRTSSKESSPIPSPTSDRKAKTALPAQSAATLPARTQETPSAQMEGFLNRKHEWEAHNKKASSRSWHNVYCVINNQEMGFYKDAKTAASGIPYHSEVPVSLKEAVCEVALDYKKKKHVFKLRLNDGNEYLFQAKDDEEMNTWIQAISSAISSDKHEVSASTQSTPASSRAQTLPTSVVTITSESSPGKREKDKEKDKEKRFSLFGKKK

HGS, O14964-2, sequence (O14964 other isoform, or with tags, fused parts or gaps): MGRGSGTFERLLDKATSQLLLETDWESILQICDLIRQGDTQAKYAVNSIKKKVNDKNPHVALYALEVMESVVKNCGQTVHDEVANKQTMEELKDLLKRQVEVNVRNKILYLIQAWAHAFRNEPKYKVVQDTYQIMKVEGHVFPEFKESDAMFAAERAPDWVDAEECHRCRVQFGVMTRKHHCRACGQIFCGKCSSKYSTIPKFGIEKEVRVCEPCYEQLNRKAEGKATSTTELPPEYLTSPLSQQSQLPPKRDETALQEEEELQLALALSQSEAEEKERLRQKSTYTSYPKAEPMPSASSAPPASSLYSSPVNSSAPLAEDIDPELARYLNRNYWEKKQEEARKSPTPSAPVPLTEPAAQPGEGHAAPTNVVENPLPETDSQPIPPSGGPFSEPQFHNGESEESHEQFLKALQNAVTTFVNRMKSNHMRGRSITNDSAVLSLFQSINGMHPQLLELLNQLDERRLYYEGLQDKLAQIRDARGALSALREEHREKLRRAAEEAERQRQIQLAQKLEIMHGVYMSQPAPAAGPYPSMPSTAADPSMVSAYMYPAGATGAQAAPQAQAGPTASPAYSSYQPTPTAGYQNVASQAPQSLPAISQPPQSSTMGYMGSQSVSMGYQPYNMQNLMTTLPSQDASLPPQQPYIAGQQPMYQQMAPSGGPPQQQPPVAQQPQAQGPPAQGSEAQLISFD
HGS, O14964-1, sequence (O14964 whole entry): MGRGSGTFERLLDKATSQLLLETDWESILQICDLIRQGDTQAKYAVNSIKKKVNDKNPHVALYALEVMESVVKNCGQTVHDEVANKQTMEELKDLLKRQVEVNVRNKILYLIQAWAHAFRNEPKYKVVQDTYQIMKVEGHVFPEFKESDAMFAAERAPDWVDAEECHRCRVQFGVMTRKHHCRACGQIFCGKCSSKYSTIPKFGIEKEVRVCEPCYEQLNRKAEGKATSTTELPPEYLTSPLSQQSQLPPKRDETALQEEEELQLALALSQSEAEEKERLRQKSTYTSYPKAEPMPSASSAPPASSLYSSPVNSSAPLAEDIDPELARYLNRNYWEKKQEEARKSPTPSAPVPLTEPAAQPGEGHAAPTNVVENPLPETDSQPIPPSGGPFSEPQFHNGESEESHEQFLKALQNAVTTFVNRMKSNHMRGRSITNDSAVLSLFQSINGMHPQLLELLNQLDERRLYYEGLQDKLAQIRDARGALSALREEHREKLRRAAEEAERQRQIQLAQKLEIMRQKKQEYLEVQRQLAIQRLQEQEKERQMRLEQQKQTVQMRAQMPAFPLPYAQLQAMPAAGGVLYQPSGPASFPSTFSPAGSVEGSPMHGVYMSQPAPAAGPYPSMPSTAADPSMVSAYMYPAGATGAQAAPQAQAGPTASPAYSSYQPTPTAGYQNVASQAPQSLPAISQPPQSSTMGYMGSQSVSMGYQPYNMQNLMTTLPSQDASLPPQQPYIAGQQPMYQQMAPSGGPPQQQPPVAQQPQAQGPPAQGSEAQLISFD

Turning to MAGAIASRMSFSSLKRKQPKTFTVRIVTMDAEMEFNCEMKWKGKDRFDLVCRTLGLRETWFFGLQYTIKDTVAWLKMDKKVLDHDVSKEEPVTFHFLAKFYPENAEEELVQEITQHLFFLQVKKQILDEKIYCPPEASVLLASYAVQAKYGDYDPSVHKRGFLAQEELLPKRVINLYQMTPEMWEERITAWYAEHRGRARDEAEMEYLKIAQDLEMYGVNYFAIRNKKGTELLLGVDALGLHIYDPENRLTPKISFPWNEIRNISYSDKEFTIKPLDKKIDVFKFNSSKLRVNKLILQLCIGNHDLFMRRRKADSLEVQQMKAQAREEKARKQMERQRLAREKQMREEAERTRDELERRLLQMKEEATMANEALMRSEETADLLAEKAQITEEEAKLLAQKAAEAEQEMQRIKATAIRTEEEKRLMEQKVLEAEVLALKMAEESERRAKEADQLKQDLQEAREAERRAKQKLLEIATKPTYPPMNPIPAPLPPDIPSFNLIGDSLSFDFKDTDMKRLSMEIEKEKVEYMEKSKHLQEQLNELKTEIEALKLKERETALDILHNENSDRGGSSKHNTIKKPQAQGRRPICI [L46R], the “effect of a mutation on the interaction” value in experiment [1] is listed as “disrupting interaction strength”; with HGS, O14964-2, “decreasing interaction strength”; with HGS, O14964-1, “decreasing interaction strength”; with NF2, P35240-1, “disrupting interaction strength”; in experiment [2], “disrupting interaction strength”.

Regarding MAGAIASRMSFSSLKRKQPKTFTVRIVTMDAEMEFNCEMKWKGKDLFDLVCRTLGLRETWFFGLQYTIKDTVAWLKMDKKVLDHDVSKEEPVTFHFLAKFYPENAEEELVQEITQHLFFLQVKKQILDEKIYCPPEASVLLASYAVQAKYGDYDPSVHKRGFLAQEELLPKRVINLYQMTPEMWEERITAWYAEHRCRARDEAEMEYLKIAQDLEMYGVNYFAIRNKKGTELLLGVDALGLHIYDPENRLTPKISFPWNEIRNISYSDKEFTIKPLDKKIDVFKFNSSKLRVNKLILQLCIGNHDLFMRRRKADSLEVQQMKAQAREEKARKQMERQRLAREKQMREEAERTRDELERRLLQMKEEATMANEALMRSEETADLLAEKAQITEEEAKLLAQKAAEAEQEMQRIKATAIRTEEEKRLMEQKVLEAEVLALKMAEESERRAKEADQLKQDLQEAREAERRAKQKLLEIATKPTYPPMNPIPAPLPPDIPSFNLIGDSLSFDFKDTDMKRLSMEIEKEKVEYMEKSKHLQEQLNELKTEIEALKLKERETALDILHNENSDRGGSSKHNTIKKPQAQGRRPICI [G197C], the “effect of a mutation on the interaction” value in experiment [1] is “with no effect”; in the experiment with HGS, O14964-2, “with no effect”; in the experiment with HGS, O14964-1 it was “with no effect”; in the experiment with NF2, P35240-1, “increasing interaction strength”; in experiment [2], “decreasing interaction strength”.
